Measurements reported in US10113152B1, “Variant polypeptides capable of aminating aliphatic alpha keto acids” (AbbVie Inc., priority 2014, dated 2018).

Test: Reductive amination of 2-oxonon-8-enoic acid to (S)-LCAA by leucine dehydrogenase (NADH consumption at 340 nm, HPLC of aliquots)
Type: biochemical
Settings: reaction described in Example 1; conversion of 2-oxonon-8-enoic acid to (S)-LCAA
Method: To produce (S)-LCAA from 2-oxonon-8-enoic acid, a reaction was performed under the following conditions. In 200 mL total volume and a buffered pH of 9.5, the aqueous reaction mixture contained 10 mM 2-oxonon-8-enoic acid, 12 mM glucose, 1 mM NAD^+, 50 mg of purified glucose dehydrogenase (GDH-105; Codexis, Redwood City, Calif.), 2 M NH4Cl/OH, and approximately 60 mL/L of purified leucine dehydrogenase cell-free extract. FIG. 2 depicts the reaction scheme for converting 2-oxonon-8-enoic acid to (S)-LCAA using leucine dehydrogenase. The mixture was incubated at 30° C. and with shaking at 150 rpm for four hours.
Enzyme activity was measured spectrophotometrically by monitoring the consumption of NADH in the reductive amination at 340 nm. Activity was defined as the number of micromoles of NADH consumed in 1 minute (μmol min^−1). Aliquots of the reaction mixture were obtained periodically during the course of the reaction and subjected to analysis by high performance liquid chromatography (HPLC).
To increase the affinity of LDH for the 2-oxonon-8-enoic acid substrate and, thus, enhance the enzyme's activity for producing (S)-LCAA, amino acid substitutions were made within the region of LDH that binds to the substrate. Specifically, amino acid substitutions were introduced at position 42 of B. cereus leucine dehydrogenase (SEQ ID NO:1) using standard mutagenesis techniques. Wild-type B. cereus LDH, along with 19 variants (one for each amino acid substitution at position 42) were expressed and isolated as described in Example 1. The enzymatic activity of the variant proteins was evaluated alongside wild-type B. cereus LDH in the reaction described in Example 1. […] While the disclosure is not bound by any particular theory or mechanism of action, the substitutions that increased the enzymatic activity of the LDH enzyme are believed to have increased the depth of the substrate binding pocket in LDH and thereby increased the affinity of LDH for the 2-oxonon-8-enoic acid substrate.

Molecule	increase in reaction rate relative to wild-type B. cereus LDH
L42G: variant B. cereus leucine dehydrogenase, leucine at position 42 substituted by glycine, SEQ ID NO:6 (protein) MTLEIFEYLEKYDYEQVVFCQDKESGLKAIIAIHDTTLGPAGGGTRMWTYDSEEAAIEDALRLAKGMTYKNAAAGLNLGGAKTVIIGDPRKDKSEAMFRALGRYIQGLNGRYITAEDVGTTVDDMDIIHEETDFVTGISPSFGSSGNPSPVTAYGVYRGMKAAAKEAFGTDNLEGKVIAVQGVGNVAYHLCKHLHAEGAKLIVTDINKEAVQRAVEEFGASAVEPNEIYGVECDIYAPCALGATVNDETIPQLKAKVIAGSANNQLKEDRHGDIIHEMGIVYAPDYVINAGGVINVADELYGYNRERALKRVESIYDTIAKVIEISKRDGIATYVAADRLAEERIASLKNSRSTYLRNGHDIISRR	approximately 1×10^3
L42V: variant B. cereus leucine dehydrogenase, leucine at position 42 substituted by valine, SEQ ID NO:5 (protein) MTLEIFEYLEKYDYEQVVFCQDKESGLKAIIAIHDTTLGPAVGGTRMWTYDSEEAAIEDALRLAKGMTYKNAAAGLNLGGAKTVIIGDPRKDKSEAMFRALGRYIQGLNGRYITAEDVGTTVDDMDIIHEETDFVTGISPSFGSSGNPSPVTAYGVYRGMKAAAKEAFGTDNLEGKVIAVQGVGNVAYHLCKHLHAEGAKLIVTDINKEAVQRAVEEFGASAVEPNEIYGVECDIYAPCALGATVNDETIPQLKAKVIAGSANNQLKEDRHGDIIHEMGIVYAPDYVINAGGVINVADELYGYNRERALKRVESIYDTIAKVIEISKRDGIATYVAADRLAEERIASLKNSRSTYLRNGHDIISRR	approximately 1×10^3

Same assay, conditions: reaction described in Example 1; conversion of 2-oxonon-8-enoic acid to (S)-LCAA; FIG. 5

Molecule	enzymatic activity (reaction rate) relative to wild-type B. cereus LDH
L42I: variant B. cereus leucine dehydrogenase, leucine at position 42 substituted by isoleucine, SEQ ID NO:4 (protein) MTLEIFEYLEKYDYEQVVFCQDKESGLKAIIAIHDTTLGPAIGGTRMWTYDSEEAAIEDALRLAKGMTYKNAAAGLNLGGAKTVIIGDPRKDKSEAMFRALGRYIQGLNGRYITAEDVGTTVDDMDIIHEETDFVTGISPSFGSSGNPSPVTAYGVYRGMKAAAKEAFGTDNLEGKVIAVQGVGNVAYHLCKHLHAEGAKLIVTDINKEAVQRAVEEFGASAVEPNEIYGVECDIYAPCALGATVNDETIPQLKAKVIAGSANNQLKEDRHGDIIHEMGIVYAPDYVINAGGVINVADELYGYNRERALKRVESIYDTIAKVIEISKRDGIATYVAADRLAEERIASLKNSRSTYLRNGHDIISRR	significantly enhanced activity
L42S: variant B. cereus leucine dehydrogenase (SEQ ID NO:1) with serine at position 42 (protein, listed as Bacillus cereus) MTLEIFEYLEKYDYEQVVFCQDKESGLKAIIAIHDTTLGPASGGTRMWTYDSEEAAIEDALRLAKGMTYKNAAAGLNLGGAKTVIIGDPRKDKSEAMFRALGRYIQGLNGRYITAEDVGTTVDDMDIIHEETDFVTGISPSFGSSGNPSPVTAYGVYRGMKAAAKEAFGTDNLEGKVIAVQGVGNVAYHLCKHLHAEGAKLIVTDINKEAVQRAVEEFGASAVEPNEIYGVECDIYAPCALGATVNDETIPQLKAKVIAGSANNQLKEDRHGDIIHEMGIVYAPDYVINAGGVINVADELYGYNRERALKRVESIYDTIAKVIEISKRDGIATYVAADRLAEERIASLKNSRSTYLRNGHDIISRR	enhanced activity
L42H: variant B. cereus leucine dehydrogenase (SEQ ID NO:1) with histidine at position 42 (protein, listed as Bacillus cereus) MTLEIFEYLEKYDYEQVVFCQDKESGLKAIIAIHDTTLGPAHGGTRMWTYDSEEAAIEDALRLAKGMTYKNAAAGLNLGGAKTVIIGDPRKDKSEAMFRALGRYIQGLNGRYITAEDVGTTVDDMDIIHEETDFVTGISPSFGSSGNPSPVTAYGVYRGMKAAAKEAFGTDNLEGKVIAVQGVGNVAYHLCKHLHAEGAKLIVTDINKEAVQRAVEEFGASAVEPNEIYGVECDIYAPCALGATVNDETIPQLKAKVIAGSANNQLKEDRHGDIIHEMGIVYAPDYVINAGGVINVADELYGYNRERALKRVESIYDTIAKVIEISKRDGIATYVAADRLAEERIASLKNSRSTYLRNGHDIISRR	reduced activity
L42G: variant B. cereus leucine dehydrogenase, leucine at position 42 substituted by glycine, SEQ ID NO:6 (protein) MTLEIFEYLEKYDYEQVVFCQDKESGLKAIIAIHDTTLGPAGGGTRMWTYDSEEAAIEDALRLAKGMTYKNAAAGLNLGGAKTVIIGDPRKDKSEAMFRALGRYIQGLNGRYITAEDVGTTVDDMDIIHEETDFVTGISPSFGSSGNPSPVTAYGVYRGMKAAAKEAFGTDNLEGKVIAVQGVGNVAYHLCKHLHAEGAKLIVTDINKEAVQRAVEEFGASAVEPNEIYGVECDIYAPCALGATVNDETIPQLKAKVIAGSANNQLKEDRHGDIIHEMGIVYAPDYVINAGGVINVADELYGYNRERALKRVESIYDTIAKVIEISKRDGIATYVAADRLAEERIASLKNSRSTYLRNGHDIISRR	significantly enhanced activity
L42T: variant B. cereus leucine dehydrogenase (SEQ ID NO:1) with threonine at position 42 (protein, listed as Bacillus cereus) MTLEIFEYLEKYDYEQVVFCQDKESGLKAIIAIHDTTLGPATGGTRMWTYDSEEAAIEDALRLAKGMTYKNAAAGLNLGGAKTVIIGDPRKDKSEAMFRALGRYIQGLNGRYITAEDVGTTVDDMDIIHEETDFVTGISPSFGSSGNPSPVTAYGVYRGMKAAAKEAFGTDNLEGKVIAVQGVGNVAYHLCKHLHAEGAKLIVTDINKEAVQRAVEEFGASAVEPNEIYGVECDIYAPCALGATVNDETIPQLKAKVIAGSANNQLKEDRHGDIIHEMGIVYAPDYVINAGGVINVADELYGYNRERALKRVESIYDTIAKVIEISKRDGIATYVAADRLAEERIASLKNSRSTYLRNGHDIISRR	enhanced activity
L42A: variant B. cereus leucine dehydrogenase, leucine at position 42 substituted by alanine, SEQ ID NO:20 (protein) MTLEIFEYLEKYDYEQVVFCQDKESGLKAIIAIHDTTLGPAAGGTRMWTYDSEEAAIEDALRLAKGMTYKNAAAGLNLGGAKTVIIGDPRKDKSEAMFRALGRYIQGLNGRYITAEDVGTTVDDMDIIHEETDFVTGISPSFGSSGNPSPVTAYGVYRGMKAAAKEAFGTDNLEGKVIAVQGVGNVAYHLCKHLHAEGAKLIVTDINKEAVQRAVEEFGASAVEPNEIYGVECDIYAPCALGATVNDETIPQLKAKVIAGSANNQLKEDRHGDIIHEMGIVYAPDYVINAGGVINVADELYGYNRERALKRVESIYDTIAKVIEISKRDGIATYVAADRLAEERIASLKNSRSTYLRNGHDIISRR	enhanced activity
L42K: variant B. cereus leucine dehydrogenase (SEQ ID NO:1) with lysine at position 42 (protein, listed as Bacillus cereus) MTLEIFEYLEKYDYEQVVFCQDKESGLKAIIAIHDTTLGPAKGGTRMWTYDSEEAAIEDALRLAKGMTYKNAAAGLNLGGAKTVIIGDPRKDKSEAMFRALGRYIQGLNGRYITAEDVGTTVDDMDIIHEETDFVTGISPSFGSSGNPSPVTAYGVYRGMKAAAKEAFGTDNLEGKVIAVQGVGNVAYHLCKHLHAEGAKLIVTDINKEAVQRAVEEFGASAVEPNEIYGVECDIYAPCALGATVNDETIPQLKAKVIAGSANNQLKEDRHGDIIHEMGIVYAPDYVINAGGVINVADELYGYNRERALKRVESIYDTIAKVIEISKRDGIATYVAADRLAEERIASLKNSRSTYLRNGHDIISRR	reduced activity
L42D: variant B. cereus leucine dehydrogenase (SEQ ID NO:1) with aspartic acid at position 42 (protein, listed as Bacillus cereus) MTLEIFEYLEKYDYEQVVFCQDKESGLKAIIAIHDTTLGPADGGTRMWTYDSEEAAIEDALRLAKGMTYKNAAAGLNLGGAKTVIIGDPRKDKSEAMFRALGRYIQGLNGRYITAEDVGTTVDDMDIIHEETDFVTGISPSFGSSGNPSPVTAYGVYRGMKAAAKEAFGTDNLEGKVIAVQGVGNVAYHLCKHLHAEGAKLIVTDINKEAVQRAVEEFGASAVEPNEIYGVECDIYAPCALGATVNDETIPQLKAKVIAGSANNQLKEDRHGDIIHEMGIVYAPDYVINAGGVINVADELYGYNRERALKRVESIYDTIAKVIEISKRDGIATYVAADRLAEERIASLKNSRSTYLRNGHDIISRR	reduced activity
L42Y: variant B. cereus leucine dehydrogenase (SEQ ID NO:1) with tyrosine at position 42 (protein, listed as Bacillus cereus) MTLEIFEYLEKYDYEQVVFCQDKESGLKAIIAIHDTTLGPAYGGTRMWTYDSEEAAIEDALRLAKGMTYKNAAAGLNLGGAKTVIIGDPRKDKSEAMFRALGRYIQGLNGRYITAEDVGTTVDDMDIIHEETDFVTGISPSFGSSGNPSPVTAYGVYRGMKAAAKEAFGTDNLEGKVIAVQGVGNVAYHLCKHLHAEGAKLIVTDINKEAVQRAVEEFGASAVEPNEIYGVECDIYAPCALGATVNDETIPQLKAKVIAGSANNQLKEDRHGDIIHEMGIVYAPDYVINAGGVINVADELYGYNRERALKRVESIYDTIAKVIEISKRDGIATYVAADRLAEERIASLKNSRSTYLRNGHDIISRR	reduced activity
L42V: variant B. cereus leucine dehydrogenase, leucine at position 42 substituted by valine, SEQ ID NO:5 (protein) MTLEIFEYLEKYDYEQVVFCQDKESGLKAIIAIHDTTLGPAVGGTRMWTYDSEEAAIEDALRLAKGMTYKNAAAGLNLGGAKTVIIGDPRKDKSEAMFRALGRYIQGLNGRYITAEDVGTTVDDMDIIHEETDFVTGISPSFGSSGNPSPVTAYGVYRGMKAAAKEAFGTDNLEGKVIAVQGVGNVAYHLCKHLHAEGAKLIVTDINKEAVQRAVEEFGASAVEPNEIYGVECDIYAPCALGATVNDETIPQLKAKVIAGSANNQLKEDRHGDIIHEMGIVYAPDYVINAGGVINVADELYGYNRERALKRVESIYDTIAKVIEISKRDGIATYVAADRLAEERIASLKNSRSTYLRNGHDIISRR	significantly enhanced activity
